Laboratory results published in patent publication US20160002331A1.
Like-named read-outs stand apart in the source and are kept apart here.

Columns and labels:
[1] = molecular target: human Notch1 NRR_Avi_His recombinant protein (human) (UniProt P46531); assay: SPR (Biacore T100), antibody captured by anti-human IgG-Fc, NRR_Avi_His as analyte, 1:1 Langmuir model
[2] = molecular target: full-length mouse Notch1 expressed on the cell surface of U-2 OS cells (mouse) (UniProt Q01705); assay: cell-based or functional assay
[3] = molecular target: full-length human Notch1 expressed on the cell surface (human) (UniProt P46531); assay: cell-based or functional assay
[4] = molecular target: Notch1 receptor with L1594P mutation (ALL-SIL cells) (UniProt P46531); assay: cell-based or functional assay
[5] = molecular target: full-length mouse Notch1 expressed on the cell surface of U-2 OS cells (mouse) (UniProt Q01705); assay: cell-based or functional assay; remark: listed apart in the source
[6] = molecular target: Notch1 receptor with L1601P mutation (MOLT-4 cells) (UniProt P46531); assay: cell-based or functional assay
[7] = molecular target: Notch1 receptor with a 12 amino acid insertion at position 1595 (CCRF-CEM cells) (UniProt P46531); assay: cell-based or functional assay
[8] = molecular target: Notch1 receptor with a 17 amino acid insertion at position 1740 (Jurkat cells) (UniProt P46531); assay: cell-based or functional assay
[9] = molecular target: Notch1 receptor with L1575P mutation (HPB-ALL cells) (UniProt P46531); assay: cell-based or functional assay
[10] = molecular target: full-length human Notch1 expressed on the cell surface (human) (UniProt P46531); assay: cell-based or functional assay; remark: listed apart in the source
[11] = molecular target: Notch1 receptor with L1594P/D1610V mutations (DND-41 cells) (UniProt P46531); assay: cell-based or functional assay

Notch1 receptor with a 12 amino acid insertion at position 1595 (CCRF-CEM cells), sequence (P46531 other isoform, or with tags, fused parts or gaps limits assumed): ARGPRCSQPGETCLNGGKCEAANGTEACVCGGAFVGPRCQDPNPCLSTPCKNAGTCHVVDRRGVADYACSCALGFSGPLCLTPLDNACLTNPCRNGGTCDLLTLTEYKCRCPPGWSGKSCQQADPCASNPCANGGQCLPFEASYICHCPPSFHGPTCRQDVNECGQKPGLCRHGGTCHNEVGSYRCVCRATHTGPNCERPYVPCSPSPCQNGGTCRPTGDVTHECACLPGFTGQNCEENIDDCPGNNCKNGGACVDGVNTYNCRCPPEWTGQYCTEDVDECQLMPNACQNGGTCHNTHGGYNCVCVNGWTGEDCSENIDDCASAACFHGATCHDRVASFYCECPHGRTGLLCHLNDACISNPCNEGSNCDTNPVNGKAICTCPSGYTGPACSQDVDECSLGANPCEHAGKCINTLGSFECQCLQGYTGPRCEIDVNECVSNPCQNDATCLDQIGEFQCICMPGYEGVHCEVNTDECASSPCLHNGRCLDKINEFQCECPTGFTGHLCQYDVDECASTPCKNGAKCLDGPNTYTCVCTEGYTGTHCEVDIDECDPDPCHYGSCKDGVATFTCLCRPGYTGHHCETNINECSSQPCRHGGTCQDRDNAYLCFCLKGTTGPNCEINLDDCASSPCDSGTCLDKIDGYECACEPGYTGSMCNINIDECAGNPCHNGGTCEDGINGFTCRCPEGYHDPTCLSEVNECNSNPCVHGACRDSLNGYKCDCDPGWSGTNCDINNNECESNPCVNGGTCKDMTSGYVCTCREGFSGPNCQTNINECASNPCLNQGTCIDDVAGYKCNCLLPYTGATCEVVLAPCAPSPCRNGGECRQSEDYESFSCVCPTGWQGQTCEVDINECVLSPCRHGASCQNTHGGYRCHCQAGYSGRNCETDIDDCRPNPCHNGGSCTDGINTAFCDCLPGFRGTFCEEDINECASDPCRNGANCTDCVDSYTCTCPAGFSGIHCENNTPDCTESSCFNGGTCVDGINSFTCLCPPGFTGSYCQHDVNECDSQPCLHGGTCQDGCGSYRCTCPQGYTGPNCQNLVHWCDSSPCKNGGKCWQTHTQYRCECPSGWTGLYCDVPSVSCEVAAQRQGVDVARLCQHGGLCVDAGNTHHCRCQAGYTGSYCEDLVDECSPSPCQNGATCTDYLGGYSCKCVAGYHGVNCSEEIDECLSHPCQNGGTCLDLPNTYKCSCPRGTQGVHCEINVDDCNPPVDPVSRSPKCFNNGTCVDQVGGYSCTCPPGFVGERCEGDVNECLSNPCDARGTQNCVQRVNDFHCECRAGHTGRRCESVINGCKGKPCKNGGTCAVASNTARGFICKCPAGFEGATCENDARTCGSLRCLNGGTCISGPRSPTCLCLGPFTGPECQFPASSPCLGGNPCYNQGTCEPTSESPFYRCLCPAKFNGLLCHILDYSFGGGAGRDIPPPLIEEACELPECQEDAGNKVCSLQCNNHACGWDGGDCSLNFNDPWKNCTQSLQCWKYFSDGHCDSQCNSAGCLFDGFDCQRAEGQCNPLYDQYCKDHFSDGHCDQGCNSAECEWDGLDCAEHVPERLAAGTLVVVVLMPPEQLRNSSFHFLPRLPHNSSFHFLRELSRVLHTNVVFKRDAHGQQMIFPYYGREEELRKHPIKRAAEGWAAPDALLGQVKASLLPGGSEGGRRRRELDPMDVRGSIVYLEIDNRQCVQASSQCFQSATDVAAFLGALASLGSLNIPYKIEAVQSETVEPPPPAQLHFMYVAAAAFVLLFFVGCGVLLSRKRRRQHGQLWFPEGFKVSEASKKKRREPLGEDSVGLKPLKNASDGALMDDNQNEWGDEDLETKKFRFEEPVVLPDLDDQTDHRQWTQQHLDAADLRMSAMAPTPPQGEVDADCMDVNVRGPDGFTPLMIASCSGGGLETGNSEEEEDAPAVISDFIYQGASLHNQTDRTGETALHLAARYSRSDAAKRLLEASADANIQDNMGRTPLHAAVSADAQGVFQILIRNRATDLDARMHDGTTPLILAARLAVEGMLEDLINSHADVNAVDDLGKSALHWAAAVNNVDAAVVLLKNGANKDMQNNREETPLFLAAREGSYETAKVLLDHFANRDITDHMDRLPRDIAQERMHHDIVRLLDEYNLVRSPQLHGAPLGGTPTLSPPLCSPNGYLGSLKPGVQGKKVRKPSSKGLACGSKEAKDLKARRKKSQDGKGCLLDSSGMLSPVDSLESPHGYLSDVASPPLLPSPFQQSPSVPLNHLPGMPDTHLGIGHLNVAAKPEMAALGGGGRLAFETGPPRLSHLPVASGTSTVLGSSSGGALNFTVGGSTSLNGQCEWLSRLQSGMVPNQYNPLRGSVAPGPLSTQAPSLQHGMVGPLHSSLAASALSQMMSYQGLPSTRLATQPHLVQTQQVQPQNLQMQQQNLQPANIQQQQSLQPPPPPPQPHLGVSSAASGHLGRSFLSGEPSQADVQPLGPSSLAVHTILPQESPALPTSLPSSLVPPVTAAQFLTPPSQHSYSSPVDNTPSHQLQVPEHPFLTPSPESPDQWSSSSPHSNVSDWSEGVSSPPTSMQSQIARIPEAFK
Notch1 receptor with L1575P mutation (HPB-ALL cells), sequence (P46531 19-2555 L1593P limits assumed): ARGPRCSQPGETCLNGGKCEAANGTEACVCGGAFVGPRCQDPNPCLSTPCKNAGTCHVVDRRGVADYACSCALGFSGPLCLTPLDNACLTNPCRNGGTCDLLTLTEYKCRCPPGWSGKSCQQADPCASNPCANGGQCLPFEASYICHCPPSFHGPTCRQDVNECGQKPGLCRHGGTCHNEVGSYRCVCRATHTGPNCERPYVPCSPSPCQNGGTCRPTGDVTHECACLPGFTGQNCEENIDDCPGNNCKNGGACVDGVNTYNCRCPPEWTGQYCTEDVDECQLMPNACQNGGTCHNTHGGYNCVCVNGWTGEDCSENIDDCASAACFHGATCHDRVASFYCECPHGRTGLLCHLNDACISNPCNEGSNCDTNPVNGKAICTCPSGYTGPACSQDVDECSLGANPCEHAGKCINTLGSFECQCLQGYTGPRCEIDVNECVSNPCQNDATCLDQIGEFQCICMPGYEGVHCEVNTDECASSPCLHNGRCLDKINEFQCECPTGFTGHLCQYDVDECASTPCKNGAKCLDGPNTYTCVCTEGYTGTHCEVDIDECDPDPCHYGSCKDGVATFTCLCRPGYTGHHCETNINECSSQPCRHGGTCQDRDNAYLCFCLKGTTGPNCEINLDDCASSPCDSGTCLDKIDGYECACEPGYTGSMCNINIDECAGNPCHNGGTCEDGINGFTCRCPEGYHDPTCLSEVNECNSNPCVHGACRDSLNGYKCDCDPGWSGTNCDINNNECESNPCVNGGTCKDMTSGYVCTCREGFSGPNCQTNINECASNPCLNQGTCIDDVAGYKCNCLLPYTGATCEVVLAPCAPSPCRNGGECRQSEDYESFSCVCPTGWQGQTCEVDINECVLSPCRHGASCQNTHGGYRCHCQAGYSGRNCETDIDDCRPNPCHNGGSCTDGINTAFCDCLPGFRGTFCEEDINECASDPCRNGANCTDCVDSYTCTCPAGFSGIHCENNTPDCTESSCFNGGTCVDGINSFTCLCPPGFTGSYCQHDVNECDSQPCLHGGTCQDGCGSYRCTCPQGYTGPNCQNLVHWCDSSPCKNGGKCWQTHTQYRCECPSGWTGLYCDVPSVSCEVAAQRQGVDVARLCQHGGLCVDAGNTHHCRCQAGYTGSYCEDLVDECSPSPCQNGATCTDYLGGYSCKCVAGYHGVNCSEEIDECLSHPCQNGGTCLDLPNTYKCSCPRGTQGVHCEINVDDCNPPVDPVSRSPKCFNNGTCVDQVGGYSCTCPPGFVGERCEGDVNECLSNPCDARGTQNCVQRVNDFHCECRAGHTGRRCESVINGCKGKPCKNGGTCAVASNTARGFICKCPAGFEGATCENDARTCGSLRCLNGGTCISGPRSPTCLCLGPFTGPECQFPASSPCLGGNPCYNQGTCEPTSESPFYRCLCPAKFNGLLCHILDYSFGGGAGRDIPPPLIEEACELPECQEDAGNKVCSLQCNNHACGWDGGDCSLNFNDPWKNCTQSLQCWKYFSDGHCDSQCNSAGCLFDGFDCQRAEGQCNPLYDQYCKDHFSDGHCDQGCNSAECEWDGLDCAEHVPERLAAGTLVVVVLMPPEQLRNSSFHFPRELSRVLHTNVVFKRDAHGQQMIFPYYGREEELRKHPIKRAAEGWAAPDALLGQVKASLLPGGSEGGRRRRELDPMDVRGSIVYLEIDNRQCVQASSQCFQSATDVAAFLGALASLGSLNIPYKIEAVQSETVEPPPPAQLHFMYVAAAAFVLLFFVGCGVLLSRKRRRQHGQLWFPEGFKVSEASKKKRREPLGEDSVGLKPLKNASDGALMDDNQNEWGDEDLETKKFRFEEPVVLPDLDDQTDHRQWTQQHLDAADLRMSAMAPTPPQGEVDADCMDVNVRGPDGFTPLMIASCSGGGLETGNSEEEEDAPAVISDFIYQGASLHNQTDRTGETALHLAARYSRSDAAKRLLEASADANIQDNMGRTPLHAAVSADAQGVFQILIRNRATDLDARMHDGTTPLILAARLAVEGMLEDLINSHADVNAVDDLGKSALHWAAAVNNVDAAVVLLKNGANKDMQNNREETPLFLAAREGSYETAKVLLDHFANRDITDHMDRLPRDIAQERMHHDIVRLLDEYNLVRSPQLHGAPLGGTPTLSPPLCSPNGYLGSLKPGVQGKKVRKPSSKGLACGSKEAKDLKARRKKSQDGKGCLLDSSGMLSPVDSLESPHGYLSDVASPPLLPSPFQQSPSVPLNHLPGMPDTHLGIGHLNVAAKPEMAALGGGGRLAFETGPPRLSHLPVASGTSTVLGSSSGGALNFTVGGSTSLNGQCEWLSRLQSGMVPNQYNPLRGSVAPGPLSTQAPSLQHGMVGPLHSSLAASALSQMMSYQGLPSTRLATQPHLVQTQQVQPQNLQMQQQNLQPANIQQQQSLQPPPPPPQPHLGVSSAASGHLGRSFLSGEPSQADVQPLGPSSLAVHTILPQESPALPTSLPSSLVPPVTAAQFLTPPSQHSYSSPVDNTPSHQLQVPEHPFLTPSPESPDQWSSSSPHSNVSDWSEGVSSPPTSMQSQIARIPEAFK
full-length human Notch1 expressed on the cell surface (human), sequence (P46531 19-2555): as the sequence (P46531 19-2555 L1593P limits assumed) above, with P1575L counted along it
Notch1 receptor with L1601P mutation (MOLT-4 cells), sequence (P46531 19-2555, stated change not applied): as the sequence (P46531 19-2555 L1593P limits assumed) above, with P1575L counted along it

“A2 antibody (Wu, Y. et al., Nature 464:1052-1057, 2010)” gave a Kd [1] of 2.94 nM, a Neutralization activity (murine RGA), % Inhibition [2] of 82% and a Neutralization activity (murine RGA), IC50 [2] of 0.36 nM. For the same substance, the Neutralization activity (Human RGA), % Inhibition [3] was 99.1%, the Neutralization activity (Human RGA), IC50 [3] was 0.27 nM and the Normalized Notch1^ICD level, ALL-SIL cells, 0.001 µg/ml antibody (relative to untreated) [4] was 1.56. The Normalized Notch1^ICD level, ALL-SIL cells, 0.01 µg/ml antibody (relative to untreated) [4] was 1.31, the Normalized Notch1^ICD level, ALL-SIL cells, 0.1 µg/ml antibody (relative to untreated) [4] was 0.068 and the Normalized Notch1^ICD level, ALL-SIL cells, 1 µg/ml antibody (relative to untreated) [4] was 0.033. For the same substance, the Normalized Notch1^ICD level, ALL-SIL cells, 10 µg/ml antibody (relative to untreated) [4] was 0.043, the IC50, mouse Notch1 reporter gene co-culture assay (DLL4-HEK293) [5] was 0.32 nM and the Neutralization activity (murine RGA), % Inhibition (maximal) [5] was 86%. The Neutralization activity (murine RGA), IC50 [5] was 0.2 nM, the Normalized Notch1^ICD level, MOLT-4 cells, 0.01 µg/ml antibody (relative to untreated) [6] was 0.962 and the Normalized Notch1^ICD level, MOLT-4 cells, 0.1 µg/ml antibody (relative to untreated) [6] was 0.644. For the same substance, the Normalized Notch1^ICD level, MOLT-4 cells, 10 µg/ml antibody (relative to untreated) [6] was 0.043, the Normalized Notch1^ICD level, CCRF-CEM cells, 0.001 µg/ml antibody (relative to untreated) [7] was 1.12 and the Normalized Notch1^ICD level, CCRF-CEM cells, 0.01 µg/ml antibody (relative to untreated) [7] was 1.28. For the same substance, the Normalized Notch1^ICD level, CCRF-CEM cells, 0.1 µg/ml antibody (relative to untreated) [7] was 0.424, the Normalized Notch1^ICD level, CCRF-CEM cells, 1 µg/ml antibody (relative to untreated) [7] was 0.048 and the Normalized Notch1^ICD level, CCRF-CEM cells, 10 µg/ml antibody (relative to untreated) [7] was 0.027. The Normalized Notch1^ICD level, Jurkat cells, 0.001 µg/ml antibody (relative to untreated) [8] was 1.2, the Normalized Notch1^ICD level, Jurkat cells, 0.01 µg/ml antibody (relative to untreated) [8] was 1.17 and the Normalized Notch1^ICD level, Jurkat cells, 0.1 µg/ml antibody (relative to untreated) [8] was 0.983. The Normalized Notch1^ICD level, Jurkat cells, 1 µg/ml antibody (relative to untreated) [8] was 1.15, the Normalized Notch1^ICD level, Jurkat cells, 10 µg/ml antibody (relative to untreated) [8] was 1.59 and the IC50, MTS viability assay of HPB-ALL leukemia cells [9] was 1.85 nM. For the same substance, the Normalized Notch1^ICD level, HPB-ALL cells, 0.001 µg/ml antibody (relative to untreated) [9] was 0.852, the Normalized Notch1^ICD level, HPB-ALL cells, 0.01 µg/ml antibody (relative to untreated) [9] was 1.15 and the Normalized Notch1^ICD level, HPB-ALL cells, 0.1 µg/ml antibody (relative to untreated) [9] was 0.33. It also gave a Normalized Notch1^ICD level, HPB-ALL cells, 1 µg/ml antibody (relative to untreated) [9] of 0.038, a Normalized Notch1^ICD level, HPB-ALL cells, 10 µg/ml antibody (relative to untreated) [9] of 0.041 and a Firefly/Renilla Luminescence, human Notch1 reporter cells + 5 mM EDTA, 0.01 µg/mL antibody (Firefly/Renilla ratio) [10] of 312. For the same substance, the Firefly/Renilla Luminescence, human Notch1 reporter cells + 5 mM EDTA, 0.1 µg/mL antibody (Firefly/Renilla ratio) [10] was 172, the Firefly/Renilla Luminescence, human Notch1 reporter cells + 5 mM EDTA, 1 µg/mL antibody (Firefly/Renilla ratio) [10] was 89.9 and the Firefly/Renilla Luminescence, human Notch1 reporter cells + 5 mM EDTA, 10 µg/mL antibody (Firefly/Renilla ratio) [10] was 63.5. It also gave a Firefly/Renilla Luminescence, human Notch1 reporter cells + 5 mM EDTA, 30 µg/mL antibody (Firefly/Renilla ratio) [10] of 55.2, an IC50, Notch1 signaling inhibition co-culture reporter assay [10] of 0.18 nM and an IC50, human Notch1 reporter gene co-culture assay (DLL4-HEK293) [10] of 0.31 nM. It also gave a Maximal Inhibition (%), Notch1 signaling inhibition co-culture reporter assay [10] of 97.7%, a Neutralization activity (Human RGA), % Inhibition (maximal) [10] of 100% and a Neutralization activity (Human RGA), IC50 [10] of 0.3 nM. For the same substance, the Normalized Notch1^ICD level, CCD1076SK fibroblasts on DLL4, 0.001 µg/ml antibody (relative to untreated) [10] was 0.748, the Normalized Notch1^ICD level, CCD1076SK fibroblasts on DLL4, 0.01 µg/ml antibody (relative to untreated) [10] was 0.402 and the Normalized Notch1^ICD level, CCD1076SK fibroblasts on DLL4, 0.1 µg/ml antibody (relative to untreated) [10] was 0.003. It also gave a Normalized Notch1^ICD level, CCD1076SK fibroblasts on DLL4, 1 µg/ml antibody (relative to untreated) [10] of 0.003, a Normalized Notch1^ICD level, CCD1076SK fibroblasts on DLL4, 10 µg/ml antibody (relative to untreated) [10] of 0.006 and a Normalized Notch1^ICD level, DND-41 cells, 0.001 µg/ml antibody (relative to untreated) [11] of 0.787. It also gave a Normalized Notch1^ICD level, DND-41 cells, 0.01 µg/ml antibody (relative to untreated) [11] of 0.84, a Normalized Notch1^ICD level, DND-41 cells, 0.1 µg/ml antibody (relative to untreated) [11] of 0.479 and a Normalized Notch1^ICD level, DND-41 cells, 1 µg/ml antibody (relative to untreated) [11] of 0.199. The Normalized Notch1^ICD level, DND-41 cells, 10 µg/ml antibody (relative to untreated) [11] was 0.114.

control anti-E. tenella antibody was tested, and the Firefly/Renilla Luminescence, human Notch1 reporter cells + 5 mM EDTA, 0.01 µg/mL antibody (Firefly/Renilla ratio) [10] was 267, the Firefly/Renilla Luminescence, human Notch1 reporter cells + 5 mM EDTA, 0.1 µg/mL antibody (Firefly/Renilla ratio) [10] was 299 and the Firefly/Renilla Luminescence, human Notch1 reporter cells + 5 mM EDTA, 1 µg/mL antibody (Firefly/Renilla ratio) [10] was 278. For the same substance, the Firefly/Renilla Luminescence, human Notch1 reporter cells + 5 mM EDTA, 10 µg/mL antibody (Firefly/Renilla ratio) [10] was 257 and the Firefly/Renilla Luminescence, human Notch1 reporter cells + 5 mM EDTA, 30 µg/mL antibody (Firefly/Renilla ratio) [10] was 229.
